Biological target: T1, orphanin FQ receptor (rat, UniProt P35370 1-367)
T1 chain: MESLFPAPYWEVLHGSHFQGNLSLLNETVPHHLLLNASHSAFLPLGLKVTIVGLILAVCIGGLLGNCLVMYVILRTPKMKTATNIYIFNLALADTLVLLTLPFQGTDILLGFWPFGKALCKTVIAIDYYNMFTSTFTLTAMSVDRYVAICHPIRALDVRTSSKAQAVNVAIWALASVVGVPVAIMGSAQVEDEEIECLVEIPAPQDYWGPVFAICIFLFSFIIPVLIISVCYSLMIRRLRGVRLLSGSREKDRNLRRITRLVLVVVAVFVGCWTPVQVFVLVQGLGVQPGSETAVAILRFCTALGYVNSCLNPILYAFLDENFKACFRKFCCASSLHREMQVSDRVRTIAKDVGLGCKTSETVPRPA
Test: cell-based or functional assay

B1: Y14-orphanin FQ (peptide)
peptide: FGGFTGARKSARKYANQ
EC50, cAMP inhibition assay: 1 nM
